This is an account of results in article PMC12279963 (Nature Communications, 2025).

In assay [1] the target is T1, EcPBP1b^C794A (pSI233), truncation 58-804, Cy3-labelled at C776 (E. coli, UniProt P02919 58-804, C794A, Cy3 (sulfo-Cy3-maleimide) on C776).
T1 sequence (looked up): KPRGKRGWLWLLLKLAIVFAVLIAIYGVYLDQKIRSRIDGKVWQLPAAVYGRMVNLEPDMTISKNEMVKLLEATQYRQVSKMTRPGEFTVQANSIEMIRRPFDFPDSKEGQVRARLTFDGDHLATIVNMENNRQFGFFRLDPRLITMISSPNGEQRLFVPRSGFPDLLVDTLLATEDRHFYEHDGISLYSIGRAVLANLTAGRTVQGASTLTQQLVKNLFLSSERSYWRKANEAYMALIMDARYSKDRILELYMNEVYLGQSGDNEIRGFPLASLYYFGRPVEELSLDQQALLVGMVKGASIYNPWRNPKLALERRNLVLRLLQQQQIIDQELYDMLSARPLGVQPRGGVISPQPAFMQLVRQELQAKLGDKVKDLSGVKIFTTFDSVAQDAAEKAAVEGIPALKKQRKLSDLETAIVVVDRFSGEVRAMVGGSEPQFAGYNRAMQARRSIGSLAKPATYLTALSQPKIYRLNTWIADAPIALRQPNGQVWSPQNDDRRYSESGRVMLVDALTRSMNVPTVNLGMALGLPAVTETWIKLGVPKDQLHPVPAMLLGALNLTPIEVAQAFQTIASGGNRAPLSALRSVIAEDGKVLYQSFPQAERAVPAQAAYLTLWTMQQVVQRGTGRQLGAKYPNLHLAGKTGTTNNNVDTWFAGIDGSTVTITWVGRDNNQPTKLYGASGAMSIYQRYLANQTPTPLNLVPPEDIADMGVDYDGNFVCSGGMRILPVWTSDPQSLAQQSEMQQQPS
In words: FRET or BRET.

The target in assay [2] is T2, EcPBP1b^82-804 (pSI199), TM domain substituted with an N-terminal cysteine acylation site, ALFA-tagged (E. coli) (UniProt P02919).
T2 sequence (P02919 82-804, looked up): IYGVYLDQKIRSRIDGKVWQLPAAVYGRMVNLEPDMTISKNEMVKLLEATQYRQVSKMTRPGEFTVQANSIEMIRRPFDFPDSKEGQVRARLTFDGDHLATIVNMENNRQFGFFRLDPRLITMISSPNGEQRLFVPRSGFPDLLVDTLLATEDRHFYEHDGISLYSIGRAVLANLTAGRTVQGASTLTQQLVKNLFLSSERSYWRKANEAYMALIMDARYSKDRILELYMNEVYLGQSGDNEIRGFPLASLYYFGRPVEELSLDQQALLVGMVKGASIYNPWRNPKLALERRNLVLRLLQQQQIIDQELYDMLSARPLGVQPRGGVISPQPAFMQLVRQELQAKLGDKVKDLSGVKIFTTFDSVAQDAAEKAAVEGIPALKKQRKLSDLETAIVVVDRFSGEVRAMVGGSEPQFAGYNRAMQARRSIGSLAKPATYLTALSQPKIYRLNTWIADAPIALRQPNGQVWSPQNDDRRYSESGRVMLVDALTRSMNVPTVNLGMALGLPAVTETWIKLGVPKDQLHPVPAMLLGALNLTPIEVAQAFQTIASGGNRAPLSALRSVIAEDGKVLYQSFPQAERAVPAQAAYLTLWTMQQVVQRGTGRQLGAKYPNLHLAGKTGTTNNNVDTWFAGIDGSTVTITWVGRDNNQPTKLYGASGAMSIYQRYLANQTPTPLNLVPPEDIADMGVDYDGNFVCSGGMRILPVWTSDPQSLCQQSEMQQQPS
As to the kind of experiment: BLI.

B1: EcLpoB^S211C (pSI204), truncation 21-213, Cy5-labelled (natural protein, E. coli, UniProt P0AB38 21-213, looked up)
chain: VGQREPAPVEEVKPAPEQPAEPQQPVPTVPSVPTIPQQPGPIEHEDQTAPPAPHIRHYDWNGAMQPMVSKMLGADGVTAGSVLLVDSVNNRTNGSLNAAEATETLRNALANNGKFTLVSAQQLSMAKQQLGLSPQDSLGTRSKAIGIARNVGAHYVLYSSASGNVNAPTLQMQLMLVQTGEIIWSGKGAVCQQ
modifications: Cy5 (sulfo-Cy5-maleimide) on C211
In assay [1], B1 came in with a Kd of 900 nM.

B2: LpoB^64-213 (pSI259), wild type (domain or fragment)
chain: HEDQTAPPAPHIRHYDWNGAMQPMVSKMLGADGVTAGSVLLVDSVNNRTNGSLNAAEATETLRNALANNGKFTLVSAQQLSMAKQQLGLSPQDSLGTRSKAIGIARNVGAHYVLYSSASGNVNAPTLQMQLMLVQTGEIIWSGKGAVSQQ
In turn, B2 had a Kd in assay [2] of 915 nM.

B3: LpoB^64-213 A164S S180I S157V (combined) (domain or fragment)
chain: HEDQTAPPAPHIRHYDWNGAMQPMVSKMLGADGVTAGSVLLVDSVNNRTNGSLNAAEATETLRNALANNGKFTLVSAQQLSMAKQQLGLSPQDVLGTRSKSIGIARNVGAHYVLYSIASGNVNAPTLQMQLMLVQTGEIIWSGKGAVSQQ
For B3, the dissociation constant (Kd) in assay [2] turned out to be 9 nM.

B4: LpoB^64-213 S157V Y178W (domain or fragment)
chain: HEDQTAPPAPHIRHYDWNGAMQPMVSKMLGADGVTAGSVLLVDSVNNRTNGSLNAAEATETLRNALANNGKFTLVSAQQLSMAKQQLGLSPQDVLGTRSKAIGIARNVGAHYVLWSSASGNVNAPTLQMQLMLVQTGEIIWSGKGAVSQQ
B4 showed a dissociation constant (Kd) in assay [2] of 24 nM.
